Assay: yeast display, Sf9 membrane polyspecificity reagent, FACS + sequencing; frameworks hold sequencing errors
Outline: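 Using colony PCR, genes from sorted yeast display clones were amplified, then sequenced on MiSeq at 2 × 250 and filtered by CDR length. The clones had been stained with 10% biotinylated, detergent-solubilized Sf9 membrane reagent for 1 hour at 4 °C and sorted by FACS into low and high (top ~1%) gates on anti-HA and streptavidin fluorescence. Polyreactivity labels come from the gate of origin.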

Row | Sequence | polyreactivity (PSR sort gate)
1 | QVQLVESGGGLVQAGGSLRLSCAASGITFYRYAMGWYRQAPGKEREFVAAINYGGSSTRYADSVKGRFTISRDNAKNTVYLQMNCLKPEDTAVYYCAVEKRYPRRRYDYWGQGTQVTVSS | low polyreactivity
2 | QVQLVESGGGLVQAGGSLRLSCAASGITFYRYAMGWYRQAPGKERELVAGITRSGGSTYYADSVKGRFTISRDNAKNTVYLQMNSLKPEDTAVYYCAARIYSFRTKGGYGYWGQGTQVTVSS | high polyreactivity
3 | QVQLVESGGGLVQAGGSLRLSCAASGITFYRYAMGWYRQAPGKERELVASISSRGSSTYYADSVKGRFTISRDNAKNTVYLQMNSLKPEDTAVYYCAKSRGSRGFVASTYNYWGQGTQVTVSS | high polyreactivity
4 | QVQLVESGGGLVQAGGSLRLSCAASGITFYRYAMGWYRQEPGKERELVAAISRSGGSTYYADSVKGRFTISRDNAKNTVYLQMNSLKPQDTEVYYCADYILGNRVGYDYWGQGTQVTVSS | high polyreactivity
5 | QVQLVESGGGLVQAGGSLRLSCAASGITFYRYDMVWYRQAPGKERELVAAISRSGGSTYYADSVKGRFTISRDNAKNTVYLQMNSLKPEDSAVYYCAAYILGNRDGYDYWGQGTQVTVSS | high polyreactivity
6 | QVQLVESGGGLVQAGGSLRLSCAASGITFYRYFMGWYRPAPGKERELVAAISRGGGSTYYADSVKGRFTISRDNAKNTVYLQMNSLKPEDTAVYYCNARYLYRHDYWGQGTQVTVSS | high polyreactivity
7 | QVQLVESGGGLVQAGGSLRLSCAASGITFYRYTMGWYRQAPGKERELVAAIRSAGSTYYADSVKGRFTISRDNAKNTVYLQMNSLKPEDTAVYYCAATYYRYNVPYYGGNGGDYWGQGTQVTVSS | high polyreactivity
8 | QVQLVESGGGLVQAGGSLRLSCAASGITFYRYVMGWYRQAPGKERELVAAITSRGGSTSYADSVKGRFTISRDNAKNTVYLQMNSLKPEDTAVYYCAAVYRRDYDYWGQGTQVTVSS | high polyreactivity
9 | QVQLVESGGGLVQAGGSLRLSCAASGITFYRYVMGWYRQAPGKERELVAAITTGDSTYYADSVKGRFTISRDNAKNTVYLLMNSLKPEDTAVYYCAAVYYSALANYDYWGQGTQVTVSS | low polyreactivity
10 | QVQLVESGGGLVQAGGSLRLSCAASGITFYSNAMGWYRQAPGKERELVAAISYRGGSTYYADSVKGRFTISRDNAKNTVYLQMNSLKPEDTAVYYCNKEVDWGWGRISYDSWGQGTQVTVSS | low polyreactivity
11 | QVQLVESGGGLVQAGGSLRLSCAASGITFYSYTMGWYIQAPGKERELVAAISDNGGRTFYADSVKGRFTISRDNAKNTVYLQMNSLKPEDTAVYYCAADSYWYRFLKSRYDYWGQGTQVTVSS | low polyreactivity
12 | QVQLVESGGGLVQAGGSLRLSCAASGITFYSYTMGWYRQAPGKERELVAAISDNGGRTFYADSVKGRFTISRDNAKNTVYLQMNSLKPEDTAVDYCAADYSYYTSFRYDYWGQGTQVTVSS | low polyreactivity
13 | QVQLVESGGGLVQAGGSLRLSCAASGITFYTYTMGWYRQAPGKERELVAAISRSSGRTYYADSVKGRFTISRDNAKNTVYLQMNSLKPEDTAVYYCAAYAVESYKYDYWGQGTQVTVSS | high polyreactivity
14 | QVQLVESGGGLVQAGGSLRLSCAASGITFYVNAMGWYRKAPGKERELVAGITLSGDSTYYADSVKGRFTISRDNAKNTVYLQMNSLKPEDTAVYYCAVEGGLWWPYTYYYWGQGTQVTVSS | high polyreactivity
15 | QVQLVESGGGLVQAGGSLRLSCAASGITFYVYAMGWYRPAPGKVRELVAAINYDSGSTYYADSVKGRFTISRDNAKNTVYLQMNSLKPEDTAVYYCATDGVNPFYAYDYWGQGTQVTVSS | low polyreactivity
16 | QVQLVESGGGLVQAGGSLRLSCAASGITFYWYTMGWYRQAPGKERELVADIEGDGGSTYYADSVKGRFTISRDNAKNTVYLQMNSLKPEDTAVYYCAAQVWPWGYDYWGQGTQVTVSS | high polyreactivity
17 | QVQLVESGGGLVQAGGSLRLSCAASGITFYYNAMGWYRQAPGKERELVAAIRSAGSTYYADSVKGRFTISRDNAKNTVYLQMNSLKPEDTAVYYCAAEDGTTDQVRVYWIMDYWGQGTQVTVSS | low polyreactivity
18 | QVQLVESGGGLVQAGGSLRLSCAASGITFYYYAMGWYRQAPGKERELVAAISDNGSRTYYADSVKGRFTISRDNAKNTVYLQMNSLKPEDTAVYYCAAEGSYGYDYWGQGTQVTVSS | high polyreactivity
19 | QVQLVESGGGLVQAGGSLRLSCAASGITFYYYAMGWYRQAPGKERELVAAISRSGGRTYYADSVKGRFTISRDNAKNTVYLQMNSLNPEDTAVYYCAAVRYQGGDSSIEYDYWGQGTQVTLSS | high polyreactivity
20 | QVQLVESGGGLVQAGGSLRLSCAASGITFYYYTMGWYRQAPGKERELVAGITYRGGRTYYADSVKGRFTISRDNAKNTVYLQMNSLKPEDTAVYYCAADDLGWWFYSGGEDYYYWGQGTQVTVSS | low polyreactivity
21 | QVQLVESGGGLVQAGGSLRLSCAASGITIFGYAMGWYRQAPGKERELVAAINYSGDSTYYADSVKGRFTISRDNAKNTVYLQMNSVKPEDTAVYYCAATRSYRQPGPKYKSYYYLYYYWGQGTQVTVSS | high polyreactivity
22 | QVQLVESGGGLVQAGGSLRLSCAASGITIFRYALGWSRQAPGKERELVAAISSSGGSTYYADSVKGRFTISRDNAKNTVYLQMNSLKPEDTAVYYCAAAHGYRYYWGQGTQVTVSS | high polyreactivity

Row | Sequence | polyreactivity (PSR sort gate)
23 | QVQLVESGGGLVQAGGSLRLSCAASGITIGRYAMGWYRPAPGKERELVAAISSTGGRTYYADSVKGRFTISRDNAKNTVYLQMNSLKPEDTAVYYCAAGRRRPFGRNDYWGQGTQVTVSS | high polyreactivity
24 | QVQLVESGGGLVQAGGSLRLSCAASGITIKRYAIGWYRQAPGKEREFVATISQSGTSTYYADSVKGRFTISRDNAMNTVYLQMNSLKPEDTAVYYCAADYIGYWYGYYSWGQGTQVTVSS | low polyreactivity
25 | QVQLVESGGGLVQAGGSLRLSCAASGITIKRYAMVWYSQAHGKEREFVATISQSGTSTYYADSVKGRFTISRDNAKNTVYLQMNSLKPEDTAVYYCAADYIGYWYGYYSWGQGTKVTVSS | low polyreactivity
26 | QVQLVESGGGLVQAGGSLRLSCAASGITIPVYMGWYRQPPGKERELVASISTIGGTTYYADSVKGRFTITRDNAKNTVYLQMNRLKPEDSAVYYCAADHPWSWYDYWGQGTQVTVSW | low polyreactivity
27 | QVQLVESGGGLVQAGGSLRLSCAASGITIRRYAMGWYRQAPGKERELVAAITYSGGGSTYYADSVKGRFTISRDNAKNTVYLQMNSLKPEDTAVYYCAAGWYPWGYYSGYISYEYWGQGTQVTVSS | high polyreactivity
28 | QVQLVESGGGLVQAGGSLRLSCAASGITIRYNAMGWYRQAPGKERELVAAISRGGDRTYYADSVKGRFTISRDNAKNTVYLQMNSLKPEDTAVYYCAADWSEKYEYWGQGTQVTVSS | high polyreactivity
29 | QVQLVESGGGLVQAGGSLRLSCAASGITISPNAMGWYRQAPGKERELVAAIDWSGDRTYYADSVKGRFTISRDNAKNTVYLQINSLKPEDTAVYYCNVVRRSPGDYSYYYWGQGTQVTVSS | low polyreactivity
30 | QVQLVESGGGLVQAGGSLRLSCAASGITISVNDMGWYRQAPGKERELVAAISSGDSTNYADSVKGRFTISRDNAKNTVYLQMNSLKPEDTAVYYCAALEGSLTGWQTYDYWGQGTQVSVSS | low polyreactivity
31 | QVQLVESGGGLVQAGGSLRLSCAASGITIVNYVMGWYRQAPGKERELVAAISIGGGTYYADSVKGRFTISRDNAKNTVYLQRNSLKPEDTAVYYCNATFGGLSFYIGVYVTGYDYWGQGTQVTVSS | low polyreactivity
32 | QVQLVESGGGLVQAGGSLRLSCAASGITIWWYAMGWYRQAPGKERELLAAITGGGSTNYADSVKGRFTISRDNAKNTVYLQMNSLKPEDTAVYYCAATGSPARNWDTVTGYYYWGQGTQVTVSS | low polyreactivity
33 | QVQLVESGGGLVQAGGSLRLSCAASGITIYAYAMGWSRQAPGKERELVAAINWSGGRTFYADSVKGRFTISRDNAKNTDYLQMNSLKPEDTAVYYCAAAYTRSYSWARGYDYWGQGTQVTVSS | high polyreactivity
34 | QVQLVESGGGLVQAGGSLRLSCAASGITIYRYAMGWYRQAPGKERELVATITWSGGSTYYADSVKGRFTISRDNAKNTVYLQMNSLKPEDTALYYCAAYSPYIYQAYRYDYWGQGTQVTVSS | low polyreactivity
35 | QVQLVESGGGLVQAGGSLRLSCAASGITLDRYAMGWYRQAPGKERELVAAISRSTTSTYYADSVKGRFTISRDNAKNTVYLQMNSLKREDTAVYYCATRTYRVDPEYGYWGQGTQVTVSS | high polyreactivity
36 | QVQLVESGGGLVQAGGSLRLSCAASGITLDVNAMGWYRQAPGKERELVADITWSDDSTYYADSVKGRFTISRDNAKNTVYLQMNSLKPEDTAVYYCAADVSVSFHPRGYDYWGQGTQVTVSS | low polyreactivity
37 | QVQLVESGGGLVQAGGSLRLSCAASGITLGRYAMGWYRQAPGKERELVAAISRSGGSTYYADSVKGRFTISRDNEKNTVYLLMNSLKPEDTAVYYCNRRVYPTSDYDYWGQGTQVTVSS | high polyreactivity
38 | QVQLVESGGGLVQAGGSLRLSCAASGITLPAYTMGWYRQAPGKERELVAAISWGGTSTYYADSVKGRFTISRDNAKNTVYLQMNSLKPEDTAVYYCNKAYATYPGYDYWGQGTQVTLSS | high polyreactivity
39 | QVQLVESGGGLVQAGGSLRLSCAASGITLPYYAMGWYRQAPGKERELVAGISSRGGSTYYADSVKGRFTISRDNAKNTVYLQMNSLKPEDTAVYYCAAKVASTRLGPAYGYWGQGTQVTVSS | high polyreactivity
40 | QVQLVESGGGLVQAGGSLRLSCAASGITLSRNAMGWYRQAPGKERELVAAITWRTDRTYYADSVKGRFTISRDNAKNTVYLQMNSLKPEDTAVYYCAARTTVSSARYDYWGQGTQVTVSS | high polyreactivity
41 | QVQLVESGGGLVQAGGSLRLSCAASGITLSWYAMGWYRQAPGKERELVAGISGRGGRTYYADSVKGRFTLSRDNAKNTVYLQMNSLKPEDTAVYYCAADSPGYRSYDYWGQGTQVTVSS | high polyreactivity
42 | QVQLVESGGGLVQAGGSLRLSCAASGITLWQYAMGWYRQAPGKERELVAGITDTGDSTYYADSVKGRVTISRDNAKNTVYLQMNSLKPEDTAVYYCAVPRSALLRAPYELYSWGQGTQVTVSS | low polyreactivity
43 | QVQLVESGGGLVQAGGSLRLSCAASGITLYDNAMGWYRQAPGKERELVAAINVNDVSTYYADSVKGRFTISRDNAKNTVYLQMNSLKPEDTAVYYCAADSLYYGIGYWVVRYDYWGQGTQVTVSS | low polyreactivity
